Source: PMC12077208 (2025)

Target: nuclear translocation factor 2-like (NTF2L) domain of human G3BP1 (human, UniProt Q13283-1 1-138)
Experiment: ITC

Chain of nuclear translocation factor 2-like (NTF2L) domain of human G3BP1 (Q13283 other isoform, or with tags, fused parts or gaps): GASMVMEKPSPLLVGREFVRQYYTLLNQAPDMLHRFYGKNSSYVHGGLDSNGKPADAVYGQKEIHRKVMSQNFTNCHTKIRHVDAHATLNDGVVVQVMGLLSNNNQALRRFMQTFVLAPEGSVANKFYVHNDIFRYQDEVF

B1: CHIKV nsP3 peptide CHIKV-43 (residues Glu469-Thr511) (peptide)
chain: GPLGSETFPITFGDFNDGEIESLSSELLTFGDFLPGEVDDLTDSDWSTHHHHHH
B1 was tested, and the Kd was 0.078 µM.

Binder ITFGDFNDGEIESLSSELLTFGDFLP [CHIKV-26 peptide (residues Ile473 to Pro498 of CHIKV nsP3, without the α2 region)] has a Kd of 7.8 µM.
